# Measurements from patent publication US20130230533A1 (Regeneron, published 2013).
# T1: human CD48 (on primary human peripheral blood mononuclear cells) (human, UniProt P09326 27-220)
# T1 sequence: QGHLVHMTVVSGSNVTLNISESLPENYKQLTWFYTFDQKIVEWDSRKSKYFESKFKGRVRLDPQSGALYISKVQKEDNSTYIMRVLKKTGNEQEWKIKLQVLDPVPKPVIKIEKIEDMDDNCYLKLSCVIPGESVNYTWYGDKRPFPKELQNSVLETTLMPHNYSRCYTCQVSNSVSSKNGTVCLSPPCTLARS
# T2: biotinylated dimeric human CD48 protein expressed as a fusion with mouse IgG2a Fc (human, biotinylated)
# T2 construct: also called bio-hCD48-mFc; Dimeric human CD48-mFc
# T2 chain: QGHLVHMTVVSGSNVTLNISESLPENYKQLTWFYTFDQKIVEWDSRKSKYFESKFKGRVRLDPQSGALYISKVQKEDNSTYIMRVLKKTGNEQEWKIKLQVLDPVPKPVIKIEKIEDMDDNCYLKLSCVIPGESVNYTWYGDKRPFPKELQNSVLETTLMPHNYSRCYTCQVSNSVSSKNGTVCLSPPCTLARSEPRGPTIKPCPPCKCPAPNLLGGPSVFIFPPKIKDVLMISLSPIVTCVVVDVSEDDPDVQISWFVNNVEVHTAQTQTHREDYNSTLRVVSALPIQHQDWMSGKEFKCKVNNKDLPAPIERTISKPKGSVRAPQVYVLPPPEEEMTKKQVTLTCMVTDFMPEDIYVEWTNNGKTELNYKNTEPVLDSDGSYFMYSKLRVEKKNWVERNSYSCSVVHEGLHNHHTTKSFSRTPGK
# T3: monomeric monkey CD48 expressed with a tag consisting of 2 myc and one 6-His epitopes (monkey)
# T3 construct: also called mfCD48-mmH; Monomeric monkey CD48-mmH
# T3 chain: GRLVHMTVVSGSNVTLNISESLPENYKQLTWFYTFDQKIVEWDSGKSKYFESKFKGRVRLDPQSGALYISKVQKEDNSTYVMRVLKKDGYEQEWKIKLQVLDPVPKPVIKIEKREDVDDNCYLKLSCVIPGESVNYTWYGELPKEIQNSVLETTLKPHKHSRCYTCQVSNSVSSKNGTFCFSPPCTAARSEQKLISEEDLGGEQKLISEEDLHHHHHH
# Experiments:
# [1] = target: T1, human CD48 (on primary human peripheral …); assay: cell-based or functional assay
# [2] = target: T1, human CD48 (on primary human peripheral …); assay: cell-based or functional assay; remark: listed apart in the source
# [3] = target: T2, biotinylated dimeric human CD48 protein …; assay: competition ELISA; blocks bio-hCD48-mFc binding to coated h2B4-hFc
# Method: (§1) The ability of human anti-CD48 monoclonal antibodies to block human CD48 and monkey CD48 binding to the human cognate ligand, human 2B4, was measured using a competition sandwich ELISA (Table 8). Constant amounts of biotinylated dimeric human CD48 protein expressed as a fusion with mouse IgG2a Fc (“bio-hCD48-mFc” [SEQ ID NO: 387]) or monomeric monkey CD48 expressed with a tag consisting of 2 myc and one 6-His epitopes (“mfCD48-mmH” [SEQ ID NO: 386]) were separately titrated with varying amounts of antibodies. These antibody-protein complexes were incubated (1 hr, 25° C.) before being transferred to microtiter plates coated with a dimeric construct expressing the human 2B4 receptor fused to a either human IgG1 (h2B4-hFc [R&D Systems, Inc., Minneapolis, Minn., Cat. No. 1039-2B]) or mouse IgG2a Fc (h2B4-mFc [SEQ ID NO: 389). After a 1 hr at 25° C. the wells were washed and bound human CD48 was detected with streptavidin conjugated with horse-radish peroxidase (HRP), and monkey CD48 was detected with an HRP conjugated anti-myc polyclonal antibody. The ELISA was developed with a TMB solution to produce a colorimetric reaction and quenched with sulfuric acid before reading absorbance at 450 nm on a Victor X5 plate reader. Sigmoidal dose response curves were fit to the data using Prism™ software. […] (Tables 8 and 9, NB=no binding observed)
# [4] = target: T2, biotinylated dimeric human CD48 protein …; assay: competition ELISA; blocks bio-hCD48-mFc binding to coated h2B4-mFc
# Method: as §1
# [5] = target: T3, monomeric monkey CD48 expressed with a …; assay: competition ELISA; blocks mfCD48-mmH binding to coated h2B4-hFc
# Method: as §1
# [6] = target: T3, monomeric monkey CD48 expressed with a …; assay: competition ELISA; blocks mfCD48-mmH binding to coated h2B4-mFc
# Method: as §1
# [7] = target: T1, human CD48 (on primary human peripheral …); assay: cell-based or functional assay; remark: listed apart in the source
# [8] = target: T1, human CD48 (on primary human peripheral …); assay: cell-based or functional assay; remark: listed apart in the source
Inhibition of IFN-gamma Release IC50; Donor 6 [1] [Molar],Inhibition of IFN-gamma Release IC50; Donor 7 [1] [Molar],Inhibition of IFN-gamma Release IC50; Donor 1 [2] [Molar],Inhibition of IFN-gamma Release IC50; Donor 2 [2] [Molar],Inhibition of IFN-gamma Release IC50; Donor 3 [2] [Molar],Inhibition of IFN-gamma Release IC50; Donor 4 [2] [Molar],Inhibition of IFN-gamma Release IC50; Donor 5 [2] [Molar],IC50 [3] [pM],IC50 [4] [pM],IC50 [5] [pM],IC50 [6] [pM],Binder,other results
–,–,9.1e-11,4.6e-10,8.3e-11,4.8e-10,9.4e-11,490,–,220,–,"H2M1811N (antibody, mouse IgG2, V domains shown, Human variable domains, mouse IgG2 Fc (H2M)) VH: QVQLVQSGAEAREPGASVRVSCKASGYTFTDYFIHWVRQAPGQGLEWMGWINPNSGATNFAQKFQGRVTMTRDTSLITAYMDLSRLKSDDAAVFYCARDVDGSGWYLDFWGQGTLVTVSS VL: EIVLTQSPATLSLSPGERATLSCRASQSVSIYLAWYQQKPGQAPRLLIYDASNRATGIPARFSGSGSGTDFTLTISRLEPEDFAVYYCQQRSDWPPSITFGQGTRLEIK",–
2e-12,2.2e-11,–,–,–,–,–,–,14,–,4.4,"H4H1772P (antibody, human IgG4, V domains shown, Human IgG4 Fc (H4H)) VH: EVQLVESGGGLVQPGGSLRLSCAASGFTFSSYWMSWVRQAPGKGLEWVANIMRDGSEKYYVDSVKGRFTISRDNAKNSLYLQMNSLRGEDTAVYYCARERGFYTNYGNWFDPWGQGTLVTVSS VL: DIVMTQSPLSLTVTPGESASISCRSSQSLLHSYGYNSLDWYLQKPGQSPQFLIYLVSNRASGVPDRFSGSGSGTDFTLKISRVEAEDVGVYYCMQVLQTPYTFGQGTKLEIK","% Blockade of IFNγ release, MLR; D2 [7]: 65%; % Blockade of IFNγ release, MLR; D3 [7]: 62%; % Blockade of IFNγ release, MLR; D4 [7]: 39%; % Blockade of IFNγ release, MLR; D5 [7]: 62%; % Blockade of IFNγ release, MLR; D6 [7]: 63%; % Blockade of IFNγ release, MLR; D7 [7]: 58%; % Blockade of IFNγ release, MLR; D8 [7]: 25%; % Blockade of IFNγ release, MLR; D9 [7]: 59%; Inhibition of IFN-gamma Release IC50; Donor 10 [8]: 1.4e-12 Molar; Inhibition of IFN-gamma Release IC50; Donor 11 [8]: 8.6e-11 Molar"

# More lines, now with the values behind:
Binder,Inhibition of IFN-gamma Release IC50; Donor 6 [1] [Molar],Inhibition of IFN-gamma Release IC50; Donor 7 [1] [Molar],Inhibition of IFN-gamma Release IC50; Donor 1 [2] [Molar],Inhibition of IFN-gamma Release IC50; Donor 2 [2] [Molar],Inhibition of IFN-gamma Release IC50; Donor 3 [2] [Molar],Inhibition of IFN-gamma Release IC50; Donor 4 [2] [Molar],Inhibition of IFN-gamma Release IC50; Donor 5 [2] [Molar],IC50 [3] [pM],IC50 [4] [pM],IC50 [5] [pM],IC50 [6] [pM],other results
"H2M1707N (antibody, V domains shown, Human variable domains, mouse IgG2 Fc (H2M)) VH: EGQLLESGGGLAQPGGSLRLSCAASGITFGRYAMSWVRQAPGKGLEWVSLISGSGGSTYHADSVKGRFTISRDNSKNTLYLQMNSLRAEDTAVYYCAIYNNYNWFDPWGQGTLVTVSS VL: EIVLTQSPGTLSLSPGERATLSCRASQSVSSNYLAWYQQKPGQAPRLLIYDASSRATDIPDRFSGSGSGTDFTLTISRLEPEDFAVYYCQQYGSSPRTFGQGTKVEIK",9.3e-12,1.9e-11,4.9e-11,3e-11,1.1e-10,1.7e-10,1.5e-11,22,8.6,23,4.9,–
"H2M1709N (antibody, mouse IgG2, V domains shown, Human variable domains, mouse IgG2 Fc (H2M)) VH: QVQLVQSGAEVKKPGASVKVSCKVSGYTLTELSIHWVRQAPGKGLEWMGGFDPEDGETIYAQKFQGRVNMTEDTSTDTAYMELSSLRSDDTTVYFCASLLPYFDYWGQGTLVTVSS VL: EIVLTQSPGTLSLSPGERATLSCRASQSVSSSYLAWYQQKPGQAPRLLIYGASSRATGIPDRFSGSGSGTDFTLSISRLEPEDFAVYFCQQYGSSMYTFGQGTKLEIK",–,–,4.8e-11,5.7e-11,1.2e-10,1.1e-10,3.2e-11,45,–,120,–,–
